Values of other authors as cited in publication PMC7970000.
Where two headings read alike, the source gives them in different places.

What was measured:
[1] = molecular target: SNX3-retromer complex (Homo sapiens) (UniProt O60493)
retromer (Homo sapiens) = retromer (Homo sapiens) (UniProt O75436)
VPS29 (Homo sapiens) [2] = molecular target: VPS29 (Homo sapiens) (UniProt Q9UBQ0)
VPS29 (Homo sapiens) [3] = molecular target: VPS29 (Homo sapiens) (UniProt Q9UBQ0); remark: listed apart in the source

Sequence of UniProt O60493 (O60493 2-162, chain 1 of 2): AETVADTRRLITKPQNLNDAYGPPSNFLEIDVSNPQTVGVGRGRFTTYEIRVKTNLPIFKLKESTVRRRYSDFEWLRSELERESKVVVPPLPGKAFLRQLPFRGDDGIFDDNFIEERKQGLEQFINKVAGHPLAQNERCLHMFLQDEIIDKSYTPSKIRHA
Sequence of UniProt O60493 (O75436 whole entry, chain 2 of 2, further chain): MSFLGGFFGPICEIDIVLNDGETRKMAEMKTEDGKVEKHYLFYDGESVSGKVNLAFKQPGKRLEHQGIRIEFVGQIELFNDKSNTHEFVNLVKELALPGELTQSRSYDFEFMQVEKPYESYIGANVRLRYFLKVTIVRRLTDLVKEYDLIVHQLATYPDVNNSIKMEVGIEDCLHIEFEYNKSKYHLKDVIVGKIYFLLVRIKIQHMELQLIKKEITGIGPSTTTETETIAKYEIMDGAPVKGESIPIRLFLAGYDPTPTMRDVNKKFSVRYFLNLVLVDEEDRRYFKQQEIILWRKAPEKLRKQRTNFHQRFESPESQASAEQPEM
Sequence of UniProt O75436 (O75436 whole entry): as the sequence (O75436 whole entry, chain 2 of 2, further chain) above

For DMT1-II (from UniProt P49281), the Kd [1] is given as 127 µM.
For TBC1D5 (from UniProt Q92609), the Kd (retromer (Homo sapiens)) is listed as 0.335 µM and the Kd (VPS29 (Homo sapiens) [2]) is listed as 20 µM.
For “VARP CHPLCxCxxC motif (from UniProt Q96NW4)”, the Kd (VPS29 (Homo sapiens) [3]) is listed as 3.5 µM.
